# Data: paper PMC4626798 (Scientific Reports, 2015)
# Values joined by “and” are separate entries in the source; they are usually repeats but may differ in a detail not shown here. Identical values can stand only once.
# T1: GST-Ppz1^Cter (S. cerevisiae, UniProt P26570 345-692)
# T1 construct: Ser/Thr protein phosphatase Ppz1, S. cerevisiae, carboxyl terminal domain, Ppz1 (Δ1–344), expressed from pGEX6P1-Ppz1^Cter; also called Ppz1 (Δ1–344); Ppz1 carboxyl terminal domain
# T1 sequence (looked up): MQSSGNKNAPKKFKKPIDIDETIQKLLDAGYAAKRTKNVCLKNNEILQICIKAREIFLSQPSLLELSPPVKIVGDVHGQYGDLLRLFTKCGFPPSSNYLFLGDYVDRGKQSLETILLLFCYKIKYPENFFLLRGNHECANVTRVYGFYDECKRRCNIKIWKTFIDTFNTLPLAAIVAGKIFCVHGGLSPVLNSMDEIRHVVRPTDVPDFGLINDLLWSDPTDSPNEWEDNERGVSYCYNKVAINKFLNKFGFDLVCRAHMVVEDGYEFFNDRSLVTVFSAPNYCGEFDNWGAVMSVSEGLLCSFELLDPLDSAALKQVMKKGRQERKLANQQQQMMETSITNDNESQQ
# T2: 6 × His-Ppz1^Cter (S. cerevisiae, UniProt P26570 345-692)
# T2 construct: Ser/Thr protein phosphatase Ppz1, S. cerevisiae, carboxyl terminal domain (Ppz1^Cter, Δ1–344), first MCS of pETDuet-1; also called N-terminally 6 × His-tagged version of Ppz1^Cter; source: E. coli BL21 (DE3), co-expressed with Hal3 from pETDuet-1; purified as the complex (Ni2+ IMAC, SEC); not shown: His6, N-terminal, kept
# T2 sequence (looked up): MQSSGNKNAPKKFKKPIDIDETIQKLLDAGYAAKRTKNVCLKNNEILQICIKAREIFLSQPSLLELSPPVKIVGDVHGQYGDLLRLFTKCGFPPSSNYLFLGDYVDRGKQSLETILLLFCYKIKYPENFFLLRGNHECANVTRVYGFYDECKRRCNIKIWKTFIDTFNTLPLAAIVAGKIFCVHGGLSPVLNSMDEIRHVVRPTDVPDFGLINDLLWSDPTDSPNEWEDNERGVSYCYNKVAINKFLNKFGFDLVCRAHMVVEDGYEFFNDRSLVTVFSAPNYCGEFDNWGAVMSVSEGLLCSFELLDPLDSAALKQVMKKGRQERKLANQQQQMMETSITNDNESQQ
# B1: 6 × His-Hal3^PD (domain or fragment, S. cerevisiae, UniProt P36024 256-495, looked up)
# chain: RLPQDDGKLHVLFGATGSLSVFKIKPMIKKLEEIYGRDRISIQVILTQSATQFFEQRYTKKIIKSSEKLNKMSQYESTPATPVTPTPGQCNMAQVVELPPHIQLWTDQDEWDAWKQRTDPVLHIELRRWADILVVAPLTANTLSKIALGLCDNLLTSVIRAWNPSYPILLAPSMVSSTFNSMMTKKQLQTIKEEMSWVTVFKPSEKVMDINGDIGLGGMMDWNEIVNKIVMKLGGYPKNN
# notes: Hal3 (Sis2), S. cerevisiae, PPCDC domain (PD); expected MW with tag 29.1 kDa; also called PPCDC domain of Hal3; source: E. coli BL21 (DE3), purified (Ni2+ IMAC); alone from pET28 or co-expressed with Cab3^PD (pETDuet-1); not shown: His6, N-terminal, kept
# B2: 6 × His-Vhs3^PD (domain or fragment, S. cerevisiae, UniProt Q08438 288-577, looked up)
# chain: DDGKLHVLFGATGSLSVFKLKHMIRKLEEIYGRDKICIQVILTNSATKFFAMKYMRKNKKQHNSIDTSFNSTNSNAGNITGNKKKVASLEKFSIQKTSSNSAASQTNNKQEEEKQMASTTGFPSTLGGSRTYSNSSNVVSQHPQIELPAHIQFWTDQDEWDVWRQRTDPVLHIELRRWADILVVAPLTANTLAKIALGLCDNLLTSVIRAWNPTFPIFLAPSMGSGTFNSIMTKKHFRIIQEEMPWVTVFKPSEKVMGINGDIGLSGMMDANEIVGKIVVKLGGYPDVSA
# notes: Vhs3, S. cerevisiae, PPCDC domain (PD), residues 288–577; Expected MW with tag 34.5 kDa; also called PPCDC domain of Vhs3; source: E. coli BL21 (DE3), purified (Ni2+ IMAC); alone from pET28a or co-expressed with Cab3^PD (pETDuet-1); not shown: His6, N-terminal, kept
# Experiments:
# [1] = target: the molecule itself; test: cross-linking; purified PD protein treated with disuccinimydyl suberate (DSS) at 37 °C (15 min Hal3^PD, 40 min Vhs3^PD), SDS-PAGE on 8% gels
# [2] = target: the molecule itself; test: SEC; purified PD proteins and co-purified mixtures on Superose 12, 50 mM phosphate pH 7.0, 150 mM NaCl, 0.4 mL/min
# 6 × His-Hal3^PD = target: B1; test: co-purification by Ni2+ IMAC after co-expression; untagged Cab3^PD co-expressed in E. coli with 6 × His-tagged Hal3^PD and/or Vhs3^PD (binary and ternary mixtures); Ni2+ IMAC, SDS-PAGE and densitometry; settings: partners not purified
# 6 × His-Vhs3^PD = target: B2; test: as above; settings: partners not purified
# GST-Ppz1^Cter = target: T1, GST-Ppz1^Cter; test: pull-down; GST-Ppz1^Cter (~6 μg) bound to glutathione agarose beads, incubated with increasing amounts of Hal3 (0.5-fold to 6-fold excess) for 1 h at 24 °C; washed with 50 mM Tris-HCl pH 7.5, 150 mM NaCl, 10% glycerol, 2 mM DTT; SDS-PAGE, Coomassie, densitometry; settings: both partners purified
# 6 × His-Ppz1^Cter = target: T2, 6 × His-Ppz1^Cter; test: SEC; IMAC-purified Ppz1^Cter–Hal3 complex on Superdex 200 HR 10/30, 50 mM Tris-HCl pH 7.5, 270 mM NaCl, 2 mM DTT, 2 mM EDTA; fractions analysed by SDS-PAGE and densitometry; settings: both partners purified
binder,measurement,setting,value
B1,stoichiometry N,[1],3
same,stoichiometry N,[2],6 and 12
B2,stoichiometry N,[1],3
"Cab3^PD (untagged) (domain or fragment, S. cerevisiae, UniProt P36076 305-508, looked up, Cab3 (previously Ykl088w), S. cerevisiae, PPCDC domain (PD), residues 305–508; Expected MW 23.3 kDa; could not be made on its own; also called PPCDC domain of Cab3; Ykl088w PD; source: E. coli BL21 (DE3), co-expressed from the second MCS of pETDuet-1 with 6 × His-Hal3^PD and/or 6 × His-Vhs3^PD; co-purified (Ni2+ IMAC)) DDKKFHILIGATGSVATIKVPLIIDKLFKIYGPEKISIQLIVTKPAEHFLKGLKMSTHVKIWREEDAWVFDAVNKNDTSLSLNLILHHELRKWADIFLIAPLSANTLAKLANGICNNLLTSVMRDWSPLTPVLIAPAMNTFMYINPMTKKHLTSLVQDYPFIQVLKPVEKVLICGDIGMGGMREWTDIVEIVRRRINEIRKARD",ratio of Hal3^PD to Cab3^PD in the co-purified binary mixture,6 × His-Hal3^PD,≥ 2 fold
same,ratio of Hal3^PD to Cab3^PD in the co-purified ternary mixture,6 × His-Hal3^PD,~2
same,ratio of Vhs3^PD to Cab3^PD in the co-purified binary mixture,6 × His-Vhs3^PD,≥ 2 fold
same,ratio of Vhs3^PD to Cab3^PD in the co-purified ternary mixture,6 × His-Vhs3^PD,~1
"Hal3 (full length, obtained from GST-Hal3 by PreScission protease treatment) (natural protein, S. cerevisiae, UniProt P36024 1-562, looked up, Hal3 (Sis2), S. cerevisiae, the entire protein, expressed from pGEX6P1-Hal3; also called Sis2; recombinant Hal3; source: E. coli BL21 (DE3), GST-Hal3 purified and digested with PreScission protease) MTAVASTSGKQDADHNQSIECPRFSRGQKEILLDHEDAKGKDSIINSPVSGRQSISPTLSNATTTTTKSIMNATGTSGAVVSNTPEPGLKRVPAVTFSDLKQQQKQDSLTQLKNDSERTKSPNSNPAPVSNSIPGNHAVIPNHTNTSRTTQLSGSPLVNEMKDYDPKKKDSALKIVDTMKPDKIMATSTPISRENNKVTAKAPTSITLRKEDAQDQANNVSGQINVRSTPEETPVKQSVIPSIIPKRENSKNLDPRLPQDDGKLHVLFGATGSLSVFKIKPMIKKLEEIYGRDRISIQVILTQSATQFFEQRYTKKIIKSSEKLNKMSQYESTPATPVTPTPGQCNMAQVVELPPHIQLWTDQDEWDAWKQRTDPVLHIELRRWADILVVAPLTANTLSKIALGLCDNLLTSVIRAWNPSYPILLAPSMVSSTFNSMMTKKQLQTIKEEMSWVTVFKPSEKVMDINGDIGLGGMMDWNEIVNKIVMKLGGYPKNNEEEDDDEDEEEDDDEEEDTEDKNENNNDDDDDDDDDDDDDDDDDDDDDDDDEDEDEAETPGIIDKHQ",maximal ratio of bound Hal3 to GST-Ppz1^Cter,GST-Ppz1^Cter,~0.5
"Hal3 (untagged, entire, co-expressed from pETDuet-1) (natural protein, S. cerevisiae, UniProt P36024 1-562, looked up, Hal3 (Sis2), S. cerevisiae, the entire Hal3, second MCS of pETDuet-1; also called Sis2; untagged version of Hal3; source: E. coli BL21 (DE3), co-expressed with 6 × His-Ppz1^Cter from pETDuet-1; purified as the complex (Ni2+ IMAC, SEC)) MTAVASTSGKQDADHNQSIECPRFSRGQKEILLDHEDAKGKDSIINSPVSGRQSISPTLSNATTTTTKSIMNATGTSGAVVSNTPEPGLKRVPAVTFSDLKQQQKQDSLTQLKNDSERTKSPNSNPAPVSNSIPGNHAVIPNHTNTSRTTQLSGSPLVNEMKDYDPKKKDSALKIVDTMKPDKIMATSTPISRENNKVTAKAPTSITLRKEDAQDQANNVSGQINVRSTPEETPVKQSVIPSIIPKRENSKNLDPRLPQDDGKLHVLFGATGSLSVFKIKPMIKKLEEIYGRDRISIQVILTQSATQFFEQRYTKKIIKSSEKLNKMSQYESTPATPVTPTPGQCNMAQVVELPPHIQLWTDQDEWDAWKQRTDPVLHIELRRWADILVVAPLTANTLSKIALGLCDNLLTSVIRAWNPSYPILLAPSMVSSTFNSMMTKKQLQTIKEEMSWVTVFKPSEKVMDINGDIGLGGMMDWNEIVNKIVMKLGGYPKNNEEEDDDEDEEEDDDEEEDTEDKNENNNDDDDDDDDDDDDDDDDDDDDDDDDEDEDEAETPGIIDKHQ",stoichiometry N,6 × His-Ppz1^Cter,~1
